The values below are quoted from earlier work in article PMC3197216.

The target of data set [1] is GluA3 ATD (Rattus norvegicus) (UniProt P19492).
Data set [2] has as its target KA2 ATD (Rattus norvegicus) (UniProt Q63273).
Data set [3] concerns the target NR2 ATD (Rattus norvegicus) (UniProt Q00960).

pKd: −log10 of the molar value.

UniProt Q63273, sequence (Q63273 20-402): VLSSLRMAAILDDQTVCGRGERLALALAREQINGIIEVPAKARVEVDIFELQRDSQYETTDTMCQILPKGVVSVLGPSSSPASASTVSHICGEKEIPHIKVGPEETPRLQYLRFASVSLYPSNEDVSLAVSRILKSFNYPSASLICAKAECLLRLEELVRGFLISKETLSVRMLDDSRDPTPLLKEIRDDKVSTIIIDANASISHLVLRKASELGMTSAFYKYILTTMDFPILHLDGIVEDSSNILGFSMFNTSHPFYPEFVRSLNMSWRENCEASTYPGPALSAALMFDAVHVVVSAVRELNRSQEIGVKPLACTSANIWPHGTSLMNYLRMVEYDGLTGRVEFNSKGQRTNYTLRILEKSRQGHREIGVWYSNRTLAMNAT
UniProt Q00960, sequence (Q00960 31-394): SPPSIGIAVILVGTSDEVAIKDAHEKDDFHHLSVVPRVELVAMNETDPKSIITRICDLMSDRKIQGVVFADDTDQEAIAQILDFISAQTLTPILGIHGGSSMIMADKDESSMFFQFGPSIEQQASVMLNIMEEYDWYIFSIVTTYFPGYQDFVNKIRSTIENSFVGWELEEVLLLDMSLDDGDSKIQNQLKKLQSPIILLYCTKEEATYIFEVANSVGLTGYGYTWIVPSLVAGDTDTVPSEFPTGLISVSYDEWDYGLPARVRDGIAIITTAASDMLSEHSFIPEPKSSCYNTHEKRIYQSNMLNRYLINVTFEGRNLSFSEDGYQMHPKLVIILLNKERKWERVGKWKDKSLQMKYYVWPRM

What is called pKd is the Kd on a negative log10 scale, so that one unit is a factor of ten. For GluA3 ATD (from UniProt P19492), in data set [1], the pKd is 5.92.

Regarding GluR6 ATD (from UniProt P42260), the pKd in data set [2] was 7.96. As to NR1 ATD (from UniProt P35439), the pKd in data set [3] was 6.15.
